According to patent US20110262525A1, “METHODS OF TREATMENT” (SCHERING CORPORATION, priority 2006, published 2011):
Marks after values point to notes of the source that are not given here.

Key:
[1] = test system: Human melanoma cells (A375-SM); assay: Cell-Titer Glo assay, A375-SM melanoma; type: cell-based; settings: 0.000256-100 nM antibody
[2] = test system: SCC15 human squamous cell carcinoma tumor cells; assay: SCC15 squamous cell carcinoma xenograft in SCID mice; type: in vivo, mouse; settings: 0.1 mg/injection ip two times per week, seven times starting on day 10
Method: Immune-deficient SCID mice (strain SCID) were inoculated with SCC15 human squamous cell carcinoma tumor cells in the right flank, subcutaneously, along with Matrigel (1:1 cells:gel). In these experiments, 5×10^6 cells/mouse in a 1:1 mix with regular matrigel were inoculated. The LCF/HCA anti-IGF1R antibody was inoculated intraperitoneally (ip) (0.1 mg/injection). Mice were dosed with the antibody two times per week, by intraperitoneal injection, seven times starting on day 10 with the last dose on day 31. Tumor size was measured with calipers and the data was entered into the labcat program. Mice were grouped with average size of 100 mm^3. Tumor size and body weight were measured twice weekly.

[3] = test system: KT-16 xenograft (Rhabdoid); assay: PPTP in vivo xenograft KT-16; settings: KT-16 (Rhabdoid) xenograft, 0.5 mg per mouse ip twice weekly for four weeks
Method: (§1) The PPTP includes a molecularly characterized in vitro panel of cell lines (n=27) and in vivo panel of xenografts (n=61) representing most of the common types of childhood solid tumors and childhood ALL (acute lymphoblastic leukemia). LCF/HCA anti-IGF1R antibody was tested against the PPTP in vitro panel at concentrations ranging from 0.01 nM to 100 nM; and was tested against the PPTP in vivo panel at a dose of 0.5 mg per mouse administered twice weekly for four weeks via intraperitoneal injection. Three measures of antitumor activity were used: 1) response criteria modeled after the clinical setting; 2) treated-to-control (T/C) tumor volume at day 21; and 3) a time to event (4-fold increase in tumor volume) measure based on the median EFS of treated and control lines (intermediate activity required EFS (event-free survival) T/C>2, and high activity additionally required a net reduction in median tumor volume at the end of the experiment).
(§2) Stage 1 testing involved testing an agent across the entire PPTP panel of childhood cancer xenograft lines at its maximum tolerated dose (MTD) or at a dose selected based on PK/PD (pharmacokinetic/pharmacodynamic) studies using adult preclinical models.
(§3) In vivo solid tumor testing: For each xenograft line, 10 mice bearing subcutaneous (SC) tumors initiated treatment when the tumors were between 0.2-0.5 cm^3 in volume. Two perpendicular tumor diameters were measured at once weekly intervals with digital vernier calipers. Assuming tumors to be spherical, volumes were calculated from the formula (π/6)×d3, where d represented the mean diameter.
(§4) Drug: LCF/HCA was dissolved in 20mM sodium acetate pH 5 buffer containing 150 mM sodium chloride, and administered intraperitoneally twice weekly for 4 consecutive weeks at a dose of 0.5 mg per animal. […]
(§5) Median Group Response: Each individual mouse in each treatment group was assigned a response score (see Tables above) and a median score for the treatment group was calculated and then each treatment group was assigned an overall response according to the table below. […]

KT-10 xenograft (Wilms) = assay: PPTP in vivo xenograft KT-10; settings: KT-10 (Wilms) xenograft, 0.5 mg per mouse ip twice weekly for four weeks
Method: as §1, §2, §3, §4, §5

KT-11 xenograft (Wilms) = assay: PPTP in vivo xenograft KT-11; settings: KT-11 (Wilms) xenograft, 0.5 mg per mouse ip twice weekly for four weeks
Method: as §1, §2, §3, §4, §5

[4] = test system: CHLA258 xenograft (Ewings); assay: PPTP in vivo xenograft CHLA258; design: key to EFS activity notation (high, intermediate, indeterminate): high (!); intermediate (#); indeterminate (^)
Method: as §1, §2, §3
(§6) Drug: LCF/HCA was dissolved in 20mM sodium acetate pH 5 buffer containing 150 mM sodium chloride, and administered intraperitoneally twice weekly for 4 consecutive weeks at a dose of 0.5 mg per animal. The antibody was provided to each testing site in coded vials for blinded testing according the PPTP's standard operating procedures.
(§7) Median Group Response: Each individual mouse in each treatment group was assigned a response score (see Tables above) and a median score for the treatment group was calculated and then each treatment group was assigned an overall response according to the table below.
(§8) Statistical Methods: Event-free survival (EFS) distributions of each treatment group were compared to the EFS distribution of the respective control group using the exact log rank test. P-values were 2-sided & were not adjusted for multiple comparisons given the exploratory nature of this study. P-values<0.05 were considered to be significant.

[5] = test system: Rh28 xenograft (ALV Rhabdomyosarcoma); assay: PPTP in vivo xenograft Rh28; design: key to EFS activity notation (high, intermediate, indeterminate): high (!); intermediate (#); indeterminate (^)
Method: as §1, §2, §3, §6, §7, §8

[6] = test system: Rh41 xenograft (ALV Rhabdomyosarcoma); assay: PPTP in vivo xenograft Rh41
Source text: The PPTP includes a molecularly characterized in vitro panel of cell lines (n=27) and in vivo panel of xenografts (n=61) representing most of the common types of childhood solid tumors and childhood ALL (acute lymphoblastic leukemia).
as §2, §3
The antibody was provided to each testing site in coded vials for blinded testing according the PPTP's standard operating procedures.
as §7, §8

[7] = test system: Rh18 xenograft (EMB Rhabdomyosarcoma); assay: PPTP in vivo xenograft Rh18
Method: as §1, §2, §3, §4, §5

[8] = test system: BT-50 xenograft (Medulloblastoma); assay: PPTP in vivo xenograft BT-50; settings: BT-50 (Medulloblastoma) xenograft, 0.5 mg per mouse ip twice weekly for four weeks
Method: as §1, §2, §3, §4, §5

[9] = test system: D645 xenograft (Glioblastoma); assay: PPTP in vivo xenograft D645; design: key to EFS activity notation (high, intermediate, indeterminate): high (!); intermediate (#); indeterminate (^)
Method: as §1, §2, §3, §6, §7, §8

[10] = test system: D456 xenograft (Glioblastoma); assay: PPTP in vivo xenograft D456
Method: as §1, §2, §3, §4, §5

[11] = test system: NB-1771 xenograft (Neuroblastoma); assay: PPTP in vivo xenograft NB-1771; settings: NB-1771 (Neuroblastoma) xenograft, 0.5 mg per mouse ip twice weekly for four weeks
Method: as §1, §2, §3, §4, §5

[12] = test system: NB-EBc1 xenograft (Neuroblastoma); assay: PPTP in vivo xenograft NB-EBc1; design: key to EFS activity notation (high, intermediate, indeterminate): high (!); intermediate (#); indeterminate (^)
Method: as §1, §2, §3, §6, §7, §8

[13] = 0.5 mg per mouse ip twice weekly for four weeks
[14] = day 21, 0.5 mg per mouse ip twice weekly for four weeks

B1: LCF/HCA: fully human anti-IGF1R antibody comprising the mature 19D12/15H12 light chain F (LCF) and mature heavy chain A (HCA) (antibody, V domains shown)
VH: EVQLVQSGGGLVHPGGSLRLSCAASGFTFSSFAMHWVRQAPGKGLEWISVIDTRGATYYADSVKGRFTISRDNAKNSLYLQMNSLRAEDMAVYYCARLGNFYYGMDVWGQGTTVTVSS
VL: EIVLTQVPDFQSVTPKEKVTITCRASQSIGSSLHWYQQKPDQSPKLLIKYASQSLSGVPSRFSGSGSGTDFTLTINSLEAEDAAAYYCHQSSRLPHTFGGGTKVEIKRT
in vitro growth of melanoma cell line [1]: in vitro growth inhibition | tumor growth [2]: less than that observed in mice only receiving a control injection without the antibody | EFS T/C [3]: 1.2 | Median Final RTV [3]: >4 | Tumor Volume T/C ([3]; day 21): 0.5 | EFS T/C (KT-10 xenograft (Wilms)): 1.3 | Median Final RTV (KT-10 xenograft (Wilms)): >4 | Tumor Volume T/C (KT-10 xenograft (Wilms); day 21): 0.43 | EFS T/C (KT-11 xenograft (Wilms)): 1 | Median Final RTV (KT-11 xenograft (Wilms)): >4 | Tumor Volume T/C (KT-11 xenograft (Wilms); day 21): 0.99 | EFS T/C [4, 13]: 4.2 | EFS activity notation (high, intermediate, indeterminate) [4, 13]: # | Median Final RTV [4, 13]: >4# | Overall Group Response [4, 13]: PD2 (1 < MS ≦ 3) | Tumor Volume T/C [4, 14]: 0.29 | EFS T/C [5, 13]: > 2.6 | EFS activity notation (high, intermediate, indeterminate) [5, 13]: # | Median Final RTV [5, 13]: 2.9# | Overall Group Response [5, 13]: PD2 (1 < MS ≦ 3) | Tumor Volume T/C [5, 14]: 0.36 | EFS T/C [6, 13]: 1.1 | Median Final RTV [6, 13]: >4 | Tumor Volume T/C [6, 14]: 0.65 | EFS T/C [7, 13]: 1 | Median Final RTV [7, 13]: >4 | Tumor Volume T/C [7, 14]: 0.74 | Median Final RTV [8]: 1.4 | Overall Group Response [8]: PD2 (1 < MS ≦ 3) | Tumor Volume T/C ([8]; day 21): 0.94 | EFS T/C [9, 13]: 2.2 | EFS activity notation (high, intermediate, indeterminate) [9, 13]: # | Median Final RTV [9, 13]: >4# | Overall Group Response [9, 13]: PD2 (1 < MS ≦ 3) | Tumor Volume T/C [9, 14]: 0.58 | EFS T/C [10, 13]: 1.1 | Median Final RTV [10, 13]: >4 | Tumor Volume T/C [10, 14]: 0.77 | EFS T/C [11]: 1.1 | Median Final RTV [11]: >4 | Tumor Volume T/C ([11]; day 21): 0.64 | EFS T/C [12, 13]: > 2.0 | EFS activity notation (high, intermediate, indeterminate) [12, 13]: # | Median Final RTV [12, 13]: 1.4# | Overall Group Response [12, 13]: PD2 (1 < MS ≦ 3) | Tumor Volume T/C [12, 14]: 0.8
